Source: the supplement of paper PMC6757056
± gives the standard deviation of the averaged measurements.

B1: library; a variant is named by its letters at N, in order (parent)
chain: GCUGUCACCGGUGCUUGGUACGUUAUAUUCAGCCGGUCUGAUGAGUCUNNNNNNAGACGAAACAGC

Legend:
(6R,S)-folinic acid [1] = variants of: B1; experiment: FACS-Seq fitted mean relative fluorescence mCherry/BFP without ligand (log10 relative fluorescence); HEK293T overexpressing SLC46A1; higher = higher reporter protein expression; details: without (6R,S)-folinic acid; ligand present: no
How it was run: (§1)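 After lentiviral transduction, HEK293T library cells bearing an mCherry ribozyme-switch reporter and an EF1α-BFP marker were enriched. They were then held for 48 h with or without ligand and sorted by mCherry/BFP into 6 bins, and each bin's genomic DNA was PCR-amplified, barcoded and MiSeq-sequenced. Fluorescence is expressed as a normalized fitted mean: the normal mean of log10(mCherry/BFP) bin counts, scaled to five spiked-in control ribozymes.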

(6R,S)-folinic acid [2] = variants of: B1; experiment: normalized RNA/DNA level without ligand (relative to sTRSVctl = 100) (log10 (% of sTRSVctl)); HEK293T overexpressing SLC46A1; higher = less ribozyme self-cleavage, higher mRNA level; details: without (6R,S)-folinic acid; ligand present: no
Protocol: (§2)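 Hammerhead (sTRSV) ribozyme switch libraries with a ligand aptamer grafted on stem I and a randomized N4-6 loop II, cloned into the 3' UTR of mCherry and transiently transfected into HEK293T cells; RNA-Seq 72 h post transfection with ligand added 1 h before transfection; RNA read count / plasmid DNA read count normalized to the non-cleaving sTRSVctl (x100), log10; sequences with >100 DNA reads. FACS-Seq: lentiviral library sorted into 6 bins after 48 h ligand, log-normal fit mean of mCherry/BFP scaled to controls. Printed sequences are partial switch sequences.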

(6R,S)-folinic acid [3] = variants of: B1; experiment: FACS-Seq fitted mean relative fluorescence mCherry/BFP with ligand (log10 relative fluorescence); HEK293T overexpressing SLC46A1; ligand concentration (+) FACS-Seq: 6 mM; higher = higher reporter protein expression; details: with (6R,S)-folinic acid; ligand present: yes
How it was run: as §1

(6R,S)-folinic acid [4] = variants of: B1; experiment: normalized RNA/DNA level with ligand (relative to sTRSVctl = 100) (log10 (% of sTRSVctl)); HEK293T overexpressing SLC46A1; ligand concentration (+) RNA-Seq: 6 mM; higher = less ribozyme self-cleavage, higher mRNA level; details: with (6R,S)-folinic acid; ligand present: yes
Protocol: as §2

Row | Variant | FACS-Seq fitted mean (log10) ((6R,S)-folinic acid [1]) | normalized RNA/DNA level without ligand (log10) ((6R,S)-folinic acid [2]) | FACS-Seq fitted mean (log10) ((6R,S)-folinic acid [3]) | normalized RNA/DNA level with ligand (log10) ((6R,S)-folinic acid [4])
1 | GAUGGU | 0.536 ± 0.091 | 2.004 ± 0.0039 | 0.622 ± 0.045 | 2.02 ± 0.049
2 | GAUGGC | 0.227 ± 0.13 | 1.967 ± 0.019 | 0.542 ± 0.2 | 2.01 ± 0.021
3 | AAUUGA | 0.309 ± 0.021 | 1.966 ± 0.0098 | 0.358 ± 0.11 | 2 ± 0.0091
4 | AAUUGG | 0.112 ± 0.046 | 1.93 ± 0.024 | 0.122 ± 0.064 | 2 ± 0.022
5 | AAUUGU | 0.0241 ± 0.064 | 1.949 ± 0.019 | 0.334 ± 0.097 | 1.98 ± 0.032
6 | CCAAGU | 0.0806 ± 0.0022 | 2.038 ± 0.0087 | 0.036 ± 0.024 | 2.04 ± 0.047
7 | GAUGAC | 0.579 ± 0.11 | 1.95 ± 0.025 | 0.593 ± 0.085 | 2.01 ± 0.043
8 | GAUGAG | 0.483 ± 0.0054 | 1.858 ± 0.0066 | 0.624 ± 0.12 | 1.978 ± 0.015
9 | GAUGAU | 0.196 ± 0.072 | 1.935 ± 0.019 | 0.199 ± 0.049 | 1.98 ± 0.034
10 | GAUGAA | 0.212 ± 0.041 | 1.966 ± 0.012 | 0.37 ± 0.0079 | 1.989 ± 0.017
11 | CCACAA | 0.496 ± 0.0082 | 1.969 ± 0.0044 | 0.422 ± 0.22 | 1.96 ± 0.016
12 | UAUACC | 0.255 ± 0.057 | 2.011 ± 0.0036 | 0.126 ± 0.21 | 2.018 ± 0.014
13 | UAUACU | 0.4 ± 0.2 | 1.9765 ± 0.0012 | 0.253 ± 0.07 | 1.99 ± 0.015
14 | UAUACG | 0.496 ± 0.089 | 1.76 ± 0.018 | 0.905 ± 0.26 | 1.96 ± 0.02
15 | UCAAAC | 0.446 ± 0.11 | 2.01 ± 0.0051 | 0.621 ± 0.079 | 2.01 ± 0.056
16 | UCAAAA | 0.0137 ± 0.17 | 1.944 ± 0.012 | 0.0601 ± 0.04 | 1.99 ± 0.046
17 | UAUAUG | 0.194 ± 0.045 | 1.75 ± 0.018 | 0.678 ± 0.12 | 1.97 ± 0.035
18 | UCAAUG | 0.183 ± 0.076 | 1.814 ± 0.0085 | 0.195 ± 0.15 | 2 ± 0.037
19 | CAUAUU | 0.434 ± 0.11 | 1.982 ± 0.0059 | 0.246 ± 0.17 | 1.98 ± 0.025
20 | CAUAUG | 0.419 ± 0.028 | 2.026 ± 0.0042 | 0.496 ± 0.28 | 2.01 ± 0.023
21 | CAUAUC | -0.161 ± 0.056 | 2.078 ± 0.0032 | -0.426 ± 0.011 | 2.03 ± 0.034
22 | UCAGCG | 0.14 ± 0.042 | 1.912 ± 0.0054 | 0.669 ± 0.098 | 2.03 ± 0.023
23 | UAUAGA | 0.233 ± 0.082 | 1.911 ± 0.003 | 0.417 ± 0.064 | 1.989 ± 0.013
24 | UAUAGG | 0.0298 ± 0.024 | 1.58 ± 0.029 | 0.514 ± 0.24 | 1.92 ± 0.02

Row | Variant | FACS-Seq fitted mean (log10) ((6R,S)-folinic acid [1]) | normalized RNA/DNA level without ligand (log10) ((6R,S)-folinic acid [2]) | FACS-Seq fitted mean (log10) ((6R,S)-folinic acid [3]) | normalized RNA/DNA level with ligand (log10) ((6R,S)-folinic acid [4])
25 | UAUAGC | 0.469 ± 0.011 | 1.943 ± 0.018 | 0.395 ± 0.19 | 1.98 ± 0.036
26 | GCAGAU | 0.24 ± 0.072 | 1.958 ± 0.011 | 0.319 ± 0.16 | 2.02 ± 0.035
27 | AAUGGU | 0.406 ± 0.13 | 1.9355 ± 0.00018 | 0.51 ± 0.099 | 2 ± 0.055
28 | AAUGGG | 0.225 ± 0.07 | 1.8 ± 0.022 | 0.233 ± 0.18 | 2 ± 0.021
29 | GAUUUA | 0.4 ± 0.091 | 2.024 ± 0.019 | 0.664 ± 0.15 | 2.03 ± 0.021
30 | GAUAGU | 0.846 ± 0.085 | 1.963 ± 0.018 | 0.563 ± 0.078 | 2 ± 0.022
31 | GAUAGG | 0.0382 ± 0.037 | 1.921 ± 0.013 | 0.234 ± 0.004 | 2.01 ± 0.022
32 | GAUAGA | 0.454 ± 0.051 | 1.959 ± 0.0082 | 0.537 ± 0.22 | 2 ± 0.021
33 | GAUAGC | 0.145 ± 0.061 | 1.962 ± 0.017 | 0.257 ± 0.081 | 2.022 ± 0.015
34 | ACAGGG | 0.0799 ± 0.097 | 1.7 ± 0.032 | 0.604 ± 0.24 | 1.97 ± 0.029
35 | ACAGGU | 0.385 ± 0.057 | 1.909 ± 0.019 | 0.437 ± 0.1 | 1.97 ± 0.052
36 | ACACGA | 0.206 ± 0.039 | 1.9971 ± 0.00061 | 0.242 ± 0.26 | 2.02 ± 0.059
37 | UAUGUG | 0.257 ± 0.25 | 1.65 ± 0.024 | 0.638 ± 0.018 | 1.944 ± 0.019
38 | UAUCCG | 0.17 ± 0.01 | 1.84 ± 0.017 | 0.376 ± 0.25 | 1.993 ± 0.019
39 | UAUUUU | 0.372 ± 0.078 | 2.006 ± 0.0046 | 0.24 ± 0.13 | 2.02 ± 0.058
40 | UAUUUG | 0.00681 ± 0.018 | 1.82 ± 0.02 | 0.373 ± 0.0088 | 1.976 ± 0.017
41 | UAUUUC | 0.248 ± 0.026 | 2.029 ± 0.0031 | 0.208 ± 0.2 | 2.01 ± 0.054
42 | ACAAGG | 0.526 ± 0.062 | 1.913 ± 0.014 | 0.524 ± 0.13 | 2.016 ± 0.014
43 | ACAAAC | 0.439 ± 0.018 | 2.03 ± 0.025 | 0.419 ± 0.038 | 2.02 ± 0.043
44 | ACAAAG | 0.424 ± 0.017 | 1.929 ± 0.019 | 0.459 ± 0.23 | 2.01 ± 0.042
45 | CCAGCC | 0.159 ± 0.022 | 2.05 ± 0.025 | -0.0156 ± 0.022 | 2.03 ± 0.039
46 | CCACGU | 0.714 ± 0.093 | 2.053 ± 0.0035 | 0.4025 ± 0.00094 | 2.0397 ± 0.0012
47 | CCACUU | 0.0563 ± 0.03 | 1.97 ± 0.021 | -0.0467 ± 0.18 | 1.972 ± 0.007
48 | CAUUUU | 0.383 ± 0.084 | 1.982 ± 0.015 | 0.284 ± 0.047 | 1.99 ± 0.043

Row | Variant | FACS-Seq fitted mean (log10) ((6R,S)-folinic acid [1]) | normalized RNA/DNA level without ligand (log10) ((6R,S)-folinic acid [2]) | FACS-Seq fitted mean (log10) ((6R,S)-folinic acid [3]) | normalized RNA/DNA level with ligand (log10) ((6R,S)-folinic acid [4])
49 | CAUUUG | 0.428 ± 0.042 | 2.05 ± 0.0064 | 0.431 ± 0.069 | 2.06 ± 0.025
50 | UAUGCG | 0.276 ± 0.043 | 1.7391 ± 0.00075 | 0.61 ± 0.063 | 1.961 ± 0.014
51 | UAUGCU | -0.0167 ± 0.051 | 2.007 ± 0.0048 | 0.129 ± 0.27 | 2.04 ± 0.029
52 | GAUUCA | 0.437 ± 0.14 | 1.985 ± 0.0095 | 0.333 ± 0.013 | 2.01 ± 0.025
53 | GAUUCU | 0.0461 ± 0.007 | 2.015 ± 0.0091 | -0.0821 ± 0.066 | 2.04 ± 0.042
54 | ACAAUG | 0.173 ± 0.021 | 1.96 ± 0.02 | 0.372 ± 0.11 | 2.03 ± 0.033
55 | ACAAUA | 0.486 ± 0.011 | 1.981 ± 0.0063 | 0.509 ± 0.16 | 2.004 ± 0.02
56 | ACAGAC | 0.355 ± 0.071 | 2.0094 ± 0.0017 | 0.356 ± 0.3 | 2.021 ± 0.0097
57 | ACAGAG | 0.511 ± 0.086 | 1.6069 ± 0.00022 | 0.928 ± 0.2 | 1.94 ± 0.048
58 | ACAGAA | 0.191 ± 0.02 | 1.947 ± 0.0015 | 0.0345 ± 0.24 | 2 ± 0.024
59 | ACAGAU | -0.89 ± 0.044 | 1.95 ± 0.0032 | -0.82 ± 0.13 | 2.03 ± 0.04
60 | GAUACG | 0.356 ± 0.069 | 1.9665 ± 0.00032 | 0.274 ± 0.0064 | 2 ± 0.0056
61 | AAUCAG | 0.0995 ± 0.041 | 1.969 ± 0.0032 | 0.228 ± 0.25 | 2.02 ± 0.045
62 | CAUCUC | 0.717 ± 0.072 | 2.111 ± 0.017 | 0.619 ± 0.56 | 2.08 ± 0.072
63 | AAUCCA | 0.639 ± 0.012 | 1.995 ± 0.015 | 0.486 ± 0.014 | 1.99 ± 0.029
64 | AAUCCU | 0.552 ± 0.046 | 2.051 ± 0.0088 | 0.476 ± 0.068 | 2.06 ± 0.019
65 | GAUGUU | 0.317 ± 0.026 | 1.976 ± 0.0069 | 0.463 ± 0.066 | 2.01 ± 0.031
66 | GAUGUG | 0.409 ± 0.09 | 1.889 ± 0.0086 | 0.576 ± 0.27 | 2.02 ± 0.021
67 | GAUGUC | 0.311 ± 0.066 | 2.021 ± 0.013 | 0.392 ± 0.21 | 1.991 ± 0.014
68 | GAUGUA | 0.1 ± 0.0045 | 1.937 ± 0.004 | 0.322 ± 0.11 | 2.001 ± 0.02
69 | UAUUAA | -0.696 ± 0.074 | 1.946 ± 0.0091 | -0.811 ± 0.25 | 1.98 ± 0.037
70 | UAUUAC | 0.106 ± 0.011 | 1.984 ± 0.0099 | 0.38 ± 0.24 | 2 ± 0.035
71 | UAUUAG | -0.162 ± 0.24 | 1.781 ± 0.0025 | 0.0465 ± 0.094 | 1.98 ± 0.054
72 | ACAACA | 0.197 ± 0.026 | 2.032 ± 0.003 | 0.27 ± 0.24 | 2.03 ± 0.04
